The values that follow come from paper PMC4538820, “The XRCC1 phosphate-binding pocket binds poly (ADP-ribose) and is required for XRCC1 function” (Nucleic Acids Research, 2015).

Assay [1] concerns the target ribosylated histone H1 (adsorbed to microwells, ribosylated with PARP1 and NAD+). The experiment in a line: microwell plate binding assay (absorbance at 450 nm). The following applies: read off a plot.
Assay [2] has as its target mock-ribosylated histone H1 (adsorbed to microwells, no NAD+). The description is as above. Conditions: 0 μM NAD+, read off a plot.
Assay [3] concerns the target T1, ribosylated PARP1 (adsorbed to microwells, ribosylated with PARP1 and NAD+) (human, UniProt P09874 1-1014, poly (ADP-ribosyl)ated by PARP1 in the presence of 1–50 μM NAD+; sites not stated).
T1 construct: PARP1, poly (ADP-ribose) polymerase 1; 'recombinant, human, full length' is printed for the 5 nM PARP1 of the reaction; Species and form are printed for the PARP1 used as enzyme; I took the adsorbed PARP1 to be the same preparation; also called PARP1 +NAD+; autoribosylated PARP1; source: recombinant
The experiment in a line: ELISA; PARP1, histone H1 or BSA adsorbed to microwells (0.1 mg/ml in PBS), mock-ribosylated (no NAD+) or ribosylated with 5 nM PARP1 and 1–50 μM NAD+; 25 nM His-XRCC1 in 20 mM Tris pH7.5, 130 nM NaCl, 30 min on ice; detected with anti-His Mab and HRP secondary, A450. Conditions: both partners purified.

T1 sequence (P09874 whole entry): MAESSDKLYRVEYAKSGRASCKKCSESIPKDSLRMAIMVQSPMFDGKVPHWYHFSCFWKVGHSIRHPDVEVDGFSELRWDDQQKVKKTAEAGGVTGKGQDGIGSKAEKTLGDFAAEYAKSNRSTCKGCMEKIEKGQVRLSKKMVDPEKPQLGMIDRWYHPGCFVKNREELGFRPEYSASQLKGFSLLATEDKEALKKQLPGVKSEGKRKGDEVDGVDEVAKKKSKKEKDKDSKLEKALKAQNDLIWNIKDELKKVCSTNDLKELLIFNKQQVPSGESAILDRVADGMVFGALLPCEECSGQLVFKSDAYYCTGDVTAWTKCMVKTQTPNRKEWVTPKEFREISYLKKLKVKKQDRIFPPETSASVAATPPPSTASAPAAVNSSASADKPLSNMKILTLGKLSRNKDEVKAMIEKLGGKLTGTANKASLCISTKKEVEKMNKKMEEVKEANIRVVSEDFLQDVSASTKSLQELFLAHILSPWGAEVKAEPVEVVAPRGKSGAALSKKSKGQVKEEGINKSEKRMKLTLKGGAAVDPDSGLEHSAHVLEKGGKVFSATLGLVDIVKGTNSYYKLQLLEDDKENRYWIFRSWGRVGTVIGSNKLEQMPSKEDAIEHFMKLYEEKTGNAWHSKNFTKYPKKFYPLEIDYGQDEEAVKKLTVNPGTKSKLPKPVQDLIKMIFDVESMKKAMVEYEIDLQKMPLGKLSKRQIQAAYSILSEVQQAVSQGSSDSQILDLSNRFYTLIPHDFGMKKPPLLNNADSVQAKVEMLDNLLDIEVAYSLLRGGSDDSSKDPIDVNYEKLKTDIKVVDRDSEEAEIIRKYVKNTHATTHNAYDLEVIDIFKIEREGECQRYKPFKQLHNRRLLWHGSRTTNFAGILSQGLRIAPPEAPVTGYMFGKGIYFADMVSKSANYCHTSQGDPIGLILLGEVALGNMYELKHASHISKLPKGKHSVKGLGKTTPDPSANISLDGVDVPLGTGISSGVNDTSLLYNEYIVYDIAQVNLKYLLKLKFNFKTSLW

With “His-XRCC1^161–406 (from UniProt P18887) R335A; K369A”, the response in assay [1] (adsorbed histone H1 ribosylated with 1 μM NAD+, parent: est. 1.7) turned out to be 0.12 Abs 450nm; in assay [1] (adsorbed histone H1 ribosylated with 10 μM NAD+, parent: est. 2.1), 0.78 Abs 450nm; in assay [1] (adsorbed histone H1 ribosylated with 50 μM NAD+, parent: est. 2.2), 1.2 Abs 450nm; in assay [1] (left panel, calf thymus histone ribosylated with 0.5 μM NAD+, no competitor, parent: est. 0.82), 0.11 Abs 450nm; in assay [2] (adsorbed histone H1 mock-ribosylated, parent: est. 0.11), 0.1 Abs 450nm; in assay [2] (left panel, calf thymus histone mock-ribosylated, no competitor, parent: est. 0.10) it was 0.12 Abs 450nm.

B1: His-XRCC1^161–406 (domain or fragment, human, UniProt P18887 161-406, looked up)
chain: PSQKVTVTKLGQFRVKEEDESANSLRPGALFFSRINKTSPVTASDPAGPSYAAATLQASSAASSASPVSRAIGSTSKPQESPKGKRKLDLNQEEKKTPSKPPAQLSPSVPKRPKLPAPTRTPATAPVPARAQGAVTGKPRGEGTEPRRPRAGPEELGKILQGVVVVLSGFQNPFRSELRDKALELGAKYRPDWTRDSTHLICAFANTPKYSQVLGLGGRIVRKEWVLDCHRMRRRLPSQRYLMAGP
notes: Vector pTWO-E (from pET-17b) adds an N-terminal His6 tag that can be cleaved by rhinovirus 3C; also called wild-type histidine-tagged fragment of human XRCC1 spanning the conserved BRCT1 domain; source: E. coli Rosetta2 (DE3)pLysS, purified (Talon resin, heparin column); not shown: His6, N-terminal, kept
Regarding B1, the binding result in assay [3] is given as “binds”.
